From the supplement of paper PMC7877785
± gives the uncertainty stated by the source.

Experiment: self-splicing fitness, log relative to wild type (ln ratio); higher = more splicing; Tetrahymena group I intron in knt gene, E. coli kanamycin selection, DiMSum; sequences stand for … in CUCUCU…GGAGGGAAAAGUUAUCAGGCAUGCACCUGGUAGCUAGUCUUUAAACCAAUAGAUUGCAUCGGUUUAAAAGGCAAGACCGUCAAAUUGCGGGAAAGGGGUCAACAGCCGUUCAGUACCAAGUCUCAGGGGAAACUUUGAGAUGGCCUUGCAAAGGGUAUGGUAAUAAGCUGACGGACAUGGUCCUAACCACGCAGCCAAGUCCUAAGUCAACAGAUCUUCUGUUGAUAUGGAUGCAGUUCACAGACUAAAUGUCGGUCGGGGAAGAUGUAUUCUUCUCAUAAGAUAUAGUCGGACCUCUCCUUAAUGGGAGCUAGCGGAUGAAGUGAUGCAACACUGGAGCCGCUGGGAACUAAUUUGUAUGCGAAAGUAUAUUGAUUAGUUUUGGAGUACUCGUGGUCG
Summary of the method: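 Library with all eight P1ex-region intron nucleotides randomised, intron inside the knt kanamycin-resistance gene on pET-22b(+), in E. coli BL21(DE3). Cells grew overnight at 37°C or 30°C on LB agar with or without 25 μg/mL kanamycin (plus 100 μg/mL carbenicillin, 50 μM IPTG, 0.2% rhamnose), in six replicate transformations. Pooled colonies were amplicon-sequenced on Illumina HiSeq 2500. DiMSum fitness is the error-weighted combination of wild-type-normalised replicate fold changes, kanamycin versus none.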

| Sequence | self-splicing fitness (ln) (30 °C) | self-splicing fitness (ln) (37 °C) |
| --- | --- | --- |
| GAAGAGCAAUAUUACGCUGU | -3.82 ± 0.3 | -2.6 ± 0.29 |
| GAAGAGCAAUAUUACGCUUC | -2.47 ± 0.34 | -1.37 ± 0.18 |
| GAAGAGCAAUAUUACGCUUG | -2.25 ± 0.13 | -1.3 ± 0.14 |
| GAAGAGCAAUAUUACGGACG | -2.59 ± 0.27 | – |
| GAAGAGCAAUAUUACGGCCG | -2.63 ± 0.42 | -0.854 ± 0.29 |
| GAAGAGCAAUAUUACGGGAU | -3.63 ± 0.22 | -3.16 ± 0.3 |
| GAAGAGCAAUAUUACGGGGU | -3.09 ± 0.34 | -1.83 ± 0.28 |
| GAAGAGCAAUAUUACGUAAU | -3.03 ± 0.2 | -1.22 ± 0.23 |
| GAAGAGCAAUAUUACGUAUA | -2 ± 0.28 | -3.5 ± 0.34 |
| GAAGAGCAAUAUUACGUCGU | -2.96 ± 0.21 | -2.24 ± 0.21 |
| GAAGAGCAAUAUUACGUCUU | -4.83 ± 0.19 | -2.4 ± 0.081 |
| GAAGAGCAAUAUUACGUGGA | -2.05 ± 0.18 | -2.54 ± 0.26 |
| GAAGAGCAAUAUUACGUUAG | -2.19 ± 0.3 | -2.59 ± 0.31 |
| GAAUAGCAAUAUUACGAAGC | -3.17 ± 0.24 | -2.54 ± 0.22 |
| GAAUAGCAAUAUUACGCAGG | -2.6 ± 0.2 | -2.28 ± 0.21 |
| GAAUAGCAAUAUUACGCAUU | -3.04 ± 0.22 | -1.43 ± 0.2 |
| GAAUAGCAAUAUUACGCGAG | -1.19 ± 0.087 | -0.803 ± 0.096 |
| GAAUAGCAAUAUUACGCUCA | -0.0838 ± 0.16 | 0.784 ± 0.18 |
| GAAUAGCAAUAUUACGGACU | -0.83 ± 0.07 | -0.397 ± 0.087 |
| GAAUAGCAAUAUUACGGGAA | -2.97 ± 0.19 | -0.92 ± 0.1 |
| GAAUAGCAAUAUUACGGGCC | -1.6 ± 0.26 | -1.13 ± 0.37 |
| GAAUAGCAAUAUUACGGGGA | -2.99 ± 0.19 | -2.39 ± 0.19 |
| GAAUAGCAAUAUUACGGGGC | -3.15 ± 0.43 | – |
| GAAUAGCAAUAUUACGGGGU | -3.77 ± 0.21 | -3.71 ± 0.21 |
| GAAUAGCAAUAUUACGGUUU | -1.03 ± 0.078 | -1.11 ± 0.1 |

| Sequence | self-splicing fitness (ln) (30 °C) | self-splicing fitness (ln) (37 °C) |
| --- | --- | --- |
| GAAUAGCAAUAUUACGUACU | -0.732 ± 0.11 | -0.151 ± 0.12 |
| GAAUAGCAAUAUUACGUAUA | -2.32 ± 0.15 | -1.54 ± 0.15 |
| GAAUAGCAAUAUUACGUUAU | -2.79 ± 0.12 | -1.65 ± 0.14 |
| GAAUAGCAAUAUUACGUUGU | -3.27 ± 0.14 | -2.38 ± 0.16 |
| GAAUAGCAAUAUUACGUUUC | -3.37 ± 0.19 | -2.4 ± 0.29 |
| GACAAGCAAUAUUACGAAUA | -2.03 ± 0.12 | -1.17 ± 0.099 |
| GACAAGCAAUAUUACGACCC | 0.926 ± 0.23 | -0.477 ± 0.39 |
| GACAAGCAAUAUUACGAGGA | -3.16 ± 0.21 | -2.42 ± 0.14 |
| GACAAGCAAUAUUACGAGUU | -3.7 ± 0.15 | -2.3 ± 0.16 |
| GACAAGCAAUAUUACGAUUA | -0.415 ± 0.096 | -0.117 ± 0.1 |
| GACAAGCAAUAUUACGCACG | -2.2 ± 0.13 | -1.07 ± 0.17 |
| GACAAGCAAUAUUACGCCAU | -3.44 ± 0.4 | -2.96 ± 0.26 |
| GACAAGCAAUAUUACGCGCG | -0.648 ± 0.091 | -0.467 ± 0.11 |
| GACAAGCAAUAUUACGCGGA | -2.24 ± 0.16 | -1.25 ± 0.13 |
| GACAAGCAAUAUUACGCUAG | -2.28 ± 0.081 | -1.36 ± 0.089 |
| GACAAGCAAUAUUACGCUCG | -1.47 ± 0.17 | -0.891 ± 0.21 |
| GACAAGCAAUAUUACGGAUC | -1.19 ± 0.13 | -0.182 ± 0.15 |
| GACAAGCAAUAUUACGGGGC | -3.36 ± 0.18 | -2.81 ± 0.23 |
| GACAAGCAAUAUUACGGUAA | -1.69 ± 0.11 | -0.907 ± 0.11 |
| GACAAGCAAUAUUACGGUCC | -3.13 ± 0.2 | -1.83 ± 0.29 |
| GACAAGCAAUAUUACGUAAC | -1.64 ± 0.077 | -1.22 ± 0.11 |
| GACAAGCAAUAUUACGUACA | -0.573 ± 0.055 | -0.314 ± 0.079 |
| GACAAGCAAUAUUACGUCGA | -2.53 ± 0.09 | -1.24 ± 0.078 |
| GACAAGCAAUAUUACGUCGG | -2.91 ± 0.14 | -2.43 ± 0.18 |
| GACAAGCAAUAUUACGUGAG | -2.28 ± 0.058 | -1.43 ± 0.06 |

| Sequence | self-splicing fitness (ln) (30 °C) | self-splicing fitness (ln) (37 °C) |
| --- | --- | --- |
| GACAAGCAAUAUUACGUGCG | -1.16 ± 0.068 | -0.532 ± 0.081 |
| GACAAGCAAUAUUACGUGUG | -2.78 ± 0.078 | -1.56 ± 0.083 |
| GACCAGCAAUAUUACGACCA | -0.124 ± 0.17 | -0.054 ± 0.15 |
| GACCAGCAAUAUUACGACCG | -0.572 ± 0.11 | -0.318 ± 0.17 |
| GACCAGCAAUAUUACGAGGC | -3.02 ± 0.13 | -0.778 ± 0.091 |
| GACCAGCAAUAUUACGAUCC | -1.93 ± 0.14 | -1.27 ± 0.17 |
| GACCAGCAAUAUUACGCAAA | -1.75 ± 0.11 | -0.859 ± 0.1 |
| GACCAGCAAUAUUACGCAAG | -1.81 ± 0.089 | -1.15 ± 0.11 |
| GACCAGCAAUAUUACGCACC | -0.0772 ± 0.089 | -1.06 ± 0.11 |
| GACCAGCAAUAUUACGCAUA | -0.474 ± 0.058 | -0.452 ± 0.074 |
| GACCAGCAAUAUUACGCCGA | -0.69 ± 0.14 | -0.272 ± 0.15 |
| GACCAGCAAUAUUACGCGUA | -0.76 ± 0.059 | -0.392 ± 0.068 |
| GACCAGCAAUAUUACGCUCC | -2.32 ± 0.22 | -1.83 ± 0.21 |
| GACCAGCAAUAUUACGGAGG | -2.04 ± 0.068 | -0.681 ± 0.07 |
| GACCAGCAAUAUUACGGCAU | 0.00655 ± 0.046 | 0.553 ± 0.068 |
| GACCAGCAAUAUUACGGGAU | -1.71 ± 0.084 | -0.575 ± 0.099 |
| GACCAGCAAUAUUACGGGCC | -3.69 ± 0.15 | -2.26 ± 0.21 |
| GACCAGCAAUAUUACGGGCU | -2.93 ± 0.14 | -1.96 ± 0.14 |
| GACCAGCAAUAUUACGGUCC | -2.95 ± 0.17 | – |
| GACCAGCAAUAUUACGGUUG | -0.661 ± 0.053 | -0.341 ± 0.062 |
| GACCAGCAAUAUUACGUAGC | -0.693 ± 0.069 | -0.496 ± 0.082 |
| GACCAGCAAUAUUACGUGGA | -1.67 ± 0.078 | -0.914 ± 0.081 |
| GACCAGCAAUAUUACGUUCG | -2.05 ± 0.073 | -0.063 ± 0.074 |
| GACCAGCAAUAUUACGUUGA | -0.701 ± 0.053 | -0.203 ± 0.066 |
| GACCAGCAAUAUUACGUUGG | -3.95 ± 0.13 | -2.53 ± 0.12 |
